Results from patent US20260043020A1, “BINDING MEMBERS WITH ALTERED DIVERSITY SCAFFOLD DOMAINS” (priority 2016, published 2026).

The binders below were run against trypsin (assay: TRF ELISA, Fab on biotinylated trypsin).

TRF signal for 0.6 ug/mL Fab	TRF signal for 2.4 ug/mL Fab	TRF signal for 10 ug/mL Fab	Binder
2390	16600	55600	KB_A01 Fab (Fab, V domains shown) VH: EVQLVESGGGLVRPGGSLRLSCAASGFTFSSYAMSWVRQAPGKGLEWVSAISGSGGSTYYADSVKGRFTISRDNTKNSLYLQMTSLRADDTAFYYCVKDFGPGYGTGWFDYWGPGTLVTVSS VL: YLNWYQQKPGKAPKLLIYAAEVCPRILMRCKQDSDCLAGCVCGPNGFCGGTSGVPSRFSGSRSGTEFTLTISSLQPEDFATYYCQKVDDYPLTFGGGTKVEIKR
108000	212000	242000	KB_A06 Fab (Fab, V domains shown) VH: EVQLVESGGGLVRPGGSLRLSCAASGFTFSSYAMSWVRQAPGKGLEWVSAISGSGGSTYYADSVKGRFTISRDNTKNSLYLQMTSLRADDTAFYYCVKDFGPGYGTGWFDYWGPGTLVTVSS VL: AVNWYQQLPGKAPKLLIYAAVRCPRILMRCKQDSDCLAGCVCGPNGFCGTPSGIPERFSGSIDRSTNSASLTISGLKTEDEADYYCQSYDSSNLNWVFGGGTKLTVLG
93800	221000	255000	KB_A02 Fab (Fab, V domains shown) VH: EVQLVESGGGLVRPGGSLRLSCAASGFTFSSYAMSWVRQAPGKGLEWVSAISGSGGSTYYADSVKGRFTISRDNTKNSLYLQMTSLRADDTAFYYCVKDFGPGYGTGWFDYWGPGTLVTVSS VL: AVNWYQQLPGKAPKLLIYAAAKCPRILMRCKQDSDCLAGCVCGPNGFCGGASGVSDRFSGSIDSSSNSASLTISGLKPEDEGDYYCQSYDSSNRWVFGGGTKVTVLG
108000	201000	226000	KB_A07 Fab (Fab, V domains shown) VH: EVQLVESGGGLVRPGGSLRLSCAASGFTFSSYAMSWVRQAPGKGLEWVSAISGSGGSTYYADSVKGRFTISRDNTKNSLYLQMTSLRADDTAFYYCVKDFGPGYGTGWFDYWGPGTLVTVSS VL: YLNWYQQKPGKAPKLLIYAAGVCPRILMRCKQDSDCLAGCVCGPNGFCGSRSGVPSRFSGSGSGTDFTLTISSLQPEDFATYYCQQGASPPYTFGQGTKVEIKR
21000	84100	161000	KB_A09 Fab (Fab, V domains shown) VH: EVQLVESGGGLVRPGGSLRLSCAASGFTFSSYAMSWVRQAPGKGLEWVSAISGSGGSTYYADSVKGRFTISRDNTKNSLYLQMTSLRADDTAFYYCVKDFGPGYGTGWFDYWGPGTLVTVSS VL: AVNWYQQLPGKAPKLLIYAAERCPRILMRCKQDSDCLAGCVCGPNGFCGTPSGVPDRFSGSIDTFSNSASLTISGLKTEDEADYYCQSYDSSHHWVFGGGTKLTVLG
48900	141000	212000	KB_A11 Fab (Fab, V domains shown) VH: EVQLVESGGGLVRPGGSLRLSCAASGFTFSSYAMSWVRQAPGKGLEWVSAISGSGGSTYYADSVKGRFTISRDNTKNSLYLQMTSLRADDTAFYYCVKDFGPGYGTGWFDYWGPGTLVTVSS VL: YLNWYQQKPGKAPKLLIYAAEICPRILMRCKQDSDCLAGCVCGPNGFCGPSSGIPARFSGSGYGTDFTLTINNIESEDAAYYFCLQHDNFPYTFGQGTKVEIKR
14600	71900	68700	KB_A10 Fab (Fab, V domains shown) VH: EVQLVESGGGLVRPGGSLRLSCAASGFTFSSYAMSWVRQAPGKGLEWVSAISGSGGSTYYADSVKGRFTISRDNTKNSLYLQMTSLRADDTAFYYCVKDFGPGYGTGWFDYWGPGTLVTVSS VL: AVNWYQQLPGKAPKLLIYAAGGCPRILMRCKQDSDCLAGCVCGPNGFCGSNSGVPDRFSGSKSGNTASLTISGLQSEDEADYYCAAWDDSLSGVVFGGGTQLTVLG
